Results as given in patent publication US20230097573A1 (LG CHEM, published 2023).

What was measured:
Hu FcRn (BPS Bioscience) [1] = target: T1, Hu FcRn (BPS Bioscience) (human, UniProt P55899 24-297; P61769 21-119); assay: ELISA, huFcRn coated, pH 6
T1 construct: Bought recombinant protein coated on ELISA plates; also called human FcRn; human neonatal Fc receptor
Method: The binding of AFFIMER® to Hu-FcRn was evaluated by enzyme linked immunosorbent assay (ELISA) in 384 well plate format. Hu FcRn (BPS Bioscience) was coated at 5 μg/ml on the plate in 40 mM MES, pH 6. Plates were washed 3 times with 100 μl of washing buffer (PBS, Tween 20 0.05%, pH 6) with a plate washer and saturated with Casein 5% (Sigma) in MES pH6 for 60 minutes at room temperature (25±1° C.). Plates were washed as described previously. AFFIMER® and negative controls (mAb anti hFcRn (clone ADM31), negative controls) were then diluted in duplicate, and loaded on the plate for 90 minutes at room temperature (25±1° C.). Plates were washed 3 times as described previously. Biotinylated polyclonal antibody anti Cystatin (R&D Systems) was then diluted in dilution Buffer (1% casein, 0.05% Tween 20, and 8 mM MES. It is in pH6) and incubated 60 minutes at room temperature (25±1° C.). Plates were washed 3 times as described previously and Streptavidin HRP (N200, thermo-Fisher) was incubated for 30 minutes at room temperature (25±1° C.). Plates were washed and the substrate (TMB, Pierce Thermo-Scientific) was added in the plate for 8±1 minute. The reaction was stopped using an acidic solution and plates were read at 450-630 nm. The EC50 was then calculated using the interpolated non-linear four-parameters standard curve (Table 4).

Hu FcRn (BPS Bioscience) [2] = target: T1, Hu FcRn (BPS Bioscience); assay: ELISA, huFcRn coated, pH 7.4
Method: (§1) The binding of AFFIMER® to hu-FcRn was evaluated by enzyme linked immunosorbent assay (ELISA) in 384 well plate format. Hu FcRn (BPS Bioscience) was coated at 5 μg/ml on the plate in PBS, pH 7.4. Plates were washed 3 times with 100 μl of washing buffer (PBS, Tween 20 0.05%, pH 7.4) with a plate washer and saturated with Casein 5% (Sigma) in MES pH 7.4 for 60 minutes at room temperature (25±1° C.). Plates were washed as described previously. AFFIMER® and controls (mAb anti hFcRn (ADM31), blank) were then diluted in duplicate, and loaded on the plate for 90 minutes at room temperature (25±1° C.). Plates were washed 3 times as described previously. Biotinylated polyclonal antibody anti Cystatin (R&D Systems) was then diluted in dilution Buffer (1% casein, 0.01% Tween 20, and 8 mM MES. It is in pH 7.4) and incubated 60 minutes at room temperature (25±1° C.). Plates were washed 3 times as described previously and Streptavidin HRP (N200, thermo-Fisher) was incubated for 30 minutes at room temperature (25±1° C.). Plates were washed and the substrate (TMB, Pierce Thermo-Scientific) was added in the plate for 8±1 minute. The reaction was stopped using an acidic solution and plates were read at 450-630 nm.

Hu FcRn (BPS Bioscience) [3] = target: T1, Hu FcRn (BPS Bioscience); assay: ELISA, huFcRn coated, purified Affimer, pH 6
Method: (§2) The binding of AFFIMER® to hu-FcRn was evaluated by enzyme linked immunosorbent assay (ELISA) in 384 well plate format. Hu FcRn (BPS Bioscience) was coated at 5 μg/ml on the plate in 40 mM MES, pH 6. Plates were washed 3 times with 100 ul of washing buffer (PBS, Tween 20 0.05%, pH 6) with a plate washer and saturated with Casein 5% (Sigma) in MES pH 6 for 60 minutes at room temperature (25±1° C.). Plates were washed as described previously. AFFIMER® and negative controls (mAb anti hFcRn (clone ADM31), negative controls) were then diluted in duplicate, and loaded on the plate for 90 minutes at room temperature (25±1° C.). Plates were washed 3 times as described previously. Biotinylated polyclonal antibody anti Cystatin (R&D Systems) was then diluted in dilution buffer (1% casein, 0.05% Tween 20, and 8 mM MES, pH 6) and incubated 60 minutes at room temperature (25±1° C.). Plates were washed 3 times as described previously and Streptavidin HRP (N200, Thermo-Fisher) was incubated for 30 minutes at room temperature (25±1° C.). Plates were washed and the substrate (TMB, Pierce Thermo-Scientific) was added in the plate for 8±1 minute. The reaction was stopped using an acidic solution and plates were read at 450-630 nm. The EC₅₀ was then calculated using the interpolated non-linear four-parameters standard curve (FIGS. 5A-5B and Table 5A).

Hu FcRn (BPS Bioscience) [4] = target: T1, Hu FcRn (BPS Bioscience); assay: ELISA, huFcRn coated, purified Affimer, pH 7.4
Method: as §1, with “100 ul” for “100 μl”, “in pH7.4)” for “in pH 7.4)”, “nm. The EC₅₀ was then calculated using the interpolated non-linear four-parameters standard curve (FIGS. 5A-5B, Table 5A).” for “nm.”

Hu FcRn (BPS Bioscience) [5] = target: T1, Hu FcRn (BPS Bioscience); assay: ELISA, huFcRn coated; ratio of the EC50 at the two pH values
Method: as §2
The binding of AFFIMER® to hu-FcRn was evaluated by enzyme linked immunosorbent assay (ELISA) in 384 well plate format. Hu FcRn (BPS Bioscience) was coated at 5 μg/ml on the plate in PBS, pH 7.4. Plates were washed 3 times with 100 ul of washing buffer (PBS, Tween 20 0.05%, pH 7.4) with a plate washer and saturated with Casein 5% (Sigma) in MES pH 7.4 for 60 minutes at room temperature (25±1° C.). Plates were washed as described previously. AFFIMER® and controls (mAb anti hFcRn (ADM31), blank) were then diluted in duplicate, and loaded on the plate for 90 minutes at room temperature (25±1° C.). Plates were washed 3 times as described previously. […]

Hu FcRn (BPS Bioscience) [6] = target: T1, Hu FcRn (BPS Bioscience); assay: ELISA, huFcRn coated, purified Affimer fusion, pH 6
Method: as §2

Hu FcRn (BPS Bioscience) [7] = target: T1, Hu FcRn (BPS Bioscience); assay: ELISA, huFcRn coated, purified Affimer fusion, pH 7.4
Method: as §1, with “100 ul” for “100 μl”, “in pH7.4)” for “in pH 7.4)”, “nm. The EC₅₀ was then calculated using the interpolated non-linear four-parameters standard curve (FIGS. 5A-5B, Table 5A).” for “nm.”

T1 sequence (P55899 24-297 limits assumed, chain 1 of 2): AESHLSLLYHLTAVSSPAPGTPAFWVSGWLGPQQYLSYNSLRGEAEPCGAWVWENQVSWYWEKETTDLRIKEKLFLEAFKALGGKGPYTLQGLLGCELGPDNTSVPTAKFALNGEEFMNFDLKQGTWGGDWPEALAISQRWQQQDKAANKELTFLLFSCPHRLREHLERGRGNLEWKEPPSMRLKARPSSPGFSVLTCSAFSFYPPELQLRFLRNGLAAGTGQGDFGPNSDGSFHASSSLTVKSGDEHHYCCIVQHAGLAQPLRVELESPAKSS
T1 sequence (P61769 21-119 limits assumed, chain 2 of 2): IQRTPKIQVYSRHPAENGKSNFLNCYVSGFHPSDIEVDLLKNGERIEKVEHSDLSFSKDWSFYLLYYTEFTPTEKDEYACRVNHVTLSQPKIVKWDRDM

B1: FcRn-38 (designed binder)
chain: MIPRGLSEAKPATPEIQEIVDKVKPQLEEKTNETYGKLEAVQYKTQVLALSFNNYHWHSTNYYIKVRAGDNKYMHLKVFNGPKLRHDKLTHADRVLTGYQVDKNKDDELTGFHHHHHH
notes: AFFIMER (stefin A variant); also called LGC01-38
EC50 (Hu FcRn (BPS Bioscience) [1]): 0.14 nM
EC50 (Hu FcRn (BPS Bioscience) [2]): 0.895 nM
EC50 (Hu FcRn (BPS Bioscience) [3]): 0.003 nM
EC50 (Hu FcRn (BPS Bioscience) [4]): 0.5 nM
pH 6/pH 7.4 (EC50 ratio) (Hu FcRn (BPS Bioscience) [5]): 167

B2: AVA04-251 FX6 (designed binder)
chain: MIPRGLSEAKPATPEIQEIVDKVKPQLEEKTNETYGKLEAVQYKTQVLALSFNNYHWHSTNYYIKVRAGDNKYMHLKVFNGPKLRHDKLTHADRVLTGYQVDKNKDDELTGFAEAAAKEAAAKEAAAKEAAAKEAAAKEAAAKMIPRGLSEAKPATPEIQEIVDKVKPQLEEKTNETYGKLEAVQYKTQVLAREGRQDWVLSTNYYIKVRAGDNKYMHLKVFNGPWVPFPHQQLADRVLTGYQVDKNKDDELTGFAEAAAKEAAAKEAAAKEAAAKEAAAKEAAAKMIPRGLSEAKPATPEIQEIVDKVKPQLEEKTNETYGKLEAVQYKTQVLAREGRQDWVLSTNYYIKVRAGDNKYMHLKVFNGPWVPFPHQQLADRVLTGYQVDKNKDDELTGFHHHHHH
EC50 (Hu FcRn (BPS Bioscience) [6]): 0.03 nM
EC50 (Hu FcRn (BPS Bioscience) [7]): 4.3 nM
pH 6/pH 7.4 (EC50 ratio) (Hu FcRn (BPS Bioscience) [5]): 143

B3: FcRn-35 (designed binder)
chain: MIPRGLSEAKPATPEIQEIVDKVKPQLEEKTNETYGKLEAVQYKTQVLAHRQYPPGPHSTNYYIKVRAGDNKYMHLKVFNGPYHFHHYYKHADRVLTGYQVDKNKDDELTGFHHHHHH
notes: AFFIMER (stefin A variant); also called LGC01-35
EC50 (Hu FcRn (BPS Bioscience) [1]): 47.9 nM
EC50 (Hu FcRn (BPS Bioscience) [2]): 225 nM
EC50 (Hu FcRn (BPS Bioscience) [3]): 0.673 nM
EC50 (Hu FcRn (BPS Bioscience) [4]): 113 nM
pH 6/pH 7.4 (EC50 ratio) (Hu FcRn (BPS Bioscience) [5]): 168
